Molecular target: the molecule itself
Test: SEC-MALS

B1: MBP-EBOV NP 1-367 (domain or fragment)
chain: MDSRPQKIWMAPSLTESDMDYHKILTAGLSVQQGIVRQRVIPVYQVNNLEEICQLIIQAFEAGVDFQESADSFLLMLCLHHAYQGDYKLFLESGAVKYLEGHGFRFEVKKRDGVKRLEELLPAVSSGKNIKRTLAAMPEEETTEANAGQFLSFASLFLPKLVVGEKACLEKVQRQIQVHAEQGLIQYPTAWQSVGHMMVIFRLMRTNFLIKFLLIHQGMHMVAGHDANDAVISNSVAQARFSGLLIVKTVLDHILQKTERGVRLHPLARTAKVKNEVNSFKAALSSLAKHGEYAPFARLLNLSGVNNLEHGLFPQLSAIALGVATAHGSTLAGVNVGEQYQQLREAATEAEKQLQQYAESRELDHLG
binding result: binds
